The numbers were not newly measured in publication PMC10653114, which cites them from elsewhere.

The term pKa denotes the negative logarithm of the acid dissociation constant.

The target in one series is Lys30 (UniProt position 31, GTITTKELGTV). The note with it: 298 K; Conc. 0.10 (unit not given; K+/Cl–); apo (Ca2+-free) calmodulin, per the Supplemental Methods, which build an apo model.
In the next series the target is Lys77 (UniProt position 78, MARKMKDTDSE). Particulars: 298 K; Conc. 0.10 (unit not given; K+/Cl–); apo (Ca2+-free) calmodulin, per the Supplemental Methods, which build an apo model.
A further series has as its target Lys21 (UniProt position 22, FSLFDKDGDGT). The note with it: 298 K; Conc. 0.10 (unit not given; K+/Cl–); apo (Ca2+-free) calmodulin, per the Supplemental Methods, which build an apo model.
Series [1] deals with Lys13 (UniProt position 14, QIAEFKEAFSL). Particulars: 298 K; Conc. 0.10 (unit not given; K+/Cl–); apo (Ca2+-free) calmodulin, per the Supplemental Methods, which build an apo model.
The next series deals with Lys94 (UniProt position 95, FRVFDKDGNGY). The note with it: 298 K; Conc. 0.10 (unit not given; K+/Cl–); apo (Ca2+-free) calmodulin, per the Supplemental Methods, which build an apo model.
A further series deals with Lys75 (UniProt position 76, TMMARKMKDTD). The note with it: 298 K; Conc. 0.10 (unit not given; K+/Cl–); apo (Ca2+-free) calmodulin, per the Supplemental Methods, which build an apo model.
For a further series, the target named is Lys8 (UniProt position 248, QPSSQKATNHN). Briefly: NMR (per the title of cited ref 99). Particulars: 298 K; Conc. 0.10 (unit not given; K+/Cl–).
The next series has as its target Lys72 (UniProt position 312, KRMAEKIIEIL). Put plainly: NMR (per the title of cited ref 99). Particulars: 298 K; Conc. 0.10 (unit not given; K+/Cl–).
The target in series [2] is Lys33 (UniProt position 273, SVQGDKWRALG). Put plainly: NMR (per the title of cited ref 99). The note with it: 298 K; Conc. 0.10 (unit not given; K+/Cl–).
For the next series, the target named is Lys67 (UniProt position 307, IPGIGKRMAEK). Briefly: NMR (per the title of cited ref 99). The note with it: 298 K; Conc. 0.10 (unit not given; K+/Cl–).
The target in another series is Lys51 (UniProt position 291, LKSFHKPVTSY). Briefly: NMR (per the title of cited ref 99). Particulars: 298 K; Conc. 0.10 (unit not given; K+/Cl–).
For another series, the target named is Lys84 (UniProt position 324, SGHLRKLDHIS). Briefly: NMR (per the title of cited ref 99). Particulars: 298 K; Conc. 0.10 (unit not given; K+/Cl–).
For the next series, the target named is Lys25 (UniProt position 265, LEVLAKAYSVQ). Put plainly: NMR (per the title of cited ref 99). Particulars: 298 K; Conc. 0.10 (unit not given; K+/Cl–).
In the next series the target is Lys41 (UniProt position 281, ALGYAKAINAL). Briefly: NMR (per the title of cited ref 99). The note with it: 298 K; Conc. 0.10 (unit not given; K+/Cl–).
The target in the next series is Lys19 (UniProt position 259, LHITEKLEVLA). Put plainly: NMR (per the title of cited ref 99). Particulars: 298 K; Conc. 0.10 (unit not given; K+/Cl–).
The next series concerns the target Lys47 (UniProt position 287, AINALKSFHKP). Briefly: NMR (per the title of cited ref 99). Particulars: 298 K; Conc. 0.10 (unit not given; K+/Cl–).
The next series has as its target Asp52 (UniProt position 70, TDGSTDYGILQ). Briefly: NMR (per the title of cited ref 36). Particulars: 300 K; Conc. 0.10 (unit not given; Na+/Cl–).
The target in a further series is Asp48 (UniProt position 66, TNRNTDGSTDY). Briefly: NMR (per the title of cited ref 36). The note with it: 300 K; Conc. 0.10 (unit not given; Na+/Cl–).
In a further series the target is Asp87 (UniProt position 105, ALLSSDITASV). Put plainly: NMR (per the title of cited ref 36). The note with it: 300 K; Conc. 0.10 (unit not given; Na+/Cl–).
Another series concerns the target Asp66 (UniProt position 84, RWWCNDGRTPG). Briefly: NMR (per the title of cited ref 36). The note with it: 300 K; Conc. 0.10 (unit not given; Na+/Cl–).
For a further series, the target named is Asp18 (UniProt position 36, KRHGLDNYRGY). Briefly: NMR (per the title of cited ref 36). Particulars: 300 K; Conc. 0.10 (unit not given; Na+/Cl–).
The target of another series is Lys97 (UniProt position 115, VNCAKKIVSDG). Briefly: NMR (per the title of cited ref 36). Particulars: 300 K; Conc. 0.10 (unit not given; Na+/Cl–).
The target of the next series is Glu7 (UniProt position 25, VFGRCELAAAM). Put plainly: NMR (per the title of cited ref 36). Particulars: 300 K; Conc. 0.10 (unit not given; Na+/Cl–).
In a further series the target is Lys96 (UniProt position 114, SVNCAKKIVSD). Briefly: NMR (per the title of cited ref 36). The note with it: 300 K; Conc. 0.10 (unit not given; Na+/Cl–).
In another series the target is Lys116 (UniProt position 134, WRNRCKGTDVQ). Put plainly: NMR (per the title of cited ref 36). Particulars: 300 K; Conc. 0.10 (unit not given; Na+/Cl–).
The target of series [3] is Lys13 (UniProt position 31, LAAAMKRHGLD). Briefly: NMR (per the title of cited ref 36). The note with it: 300 K; Conc. 0.10 (unit not given; Na+/Cl–).
A further series addresses Asp119 (UniProt position 137, RCKGTDVQAWI). Put plainly: NMR (per the title of cited ref 36). Particulars: 300 K; Conc. 0.10 (unit not given; Na+/Cl–).
For a further series, the target named is Glu35 (UniProt position 53, CAAKFESNFNT). Put plainly: NMR (per the title of cited ref 36). Particulars: 300 K; Conc. 0.10 (unit not given; Na+/Cl–).
In another series the target is Asp101 (UniProt position 119, KKIVSDGNGMN). Put plainly: NMR (per the title of cited ref 36). Particulars: 300 K; Conc. 0.10 (unit not given; Na+/Cl–).
The target of series [4] is Lys33 (UniProt position 51, WVCAAKFESNF). Put plainly: NMR (per the title of cited ref 36). The note with it: 300 K; Conc. 0.10 (unit not given; Na+/Cl–).
Another series has as its target Asp61 (UniProt position 435, STVTQDGSAVT). The note with it: 298 K; Conc. 0.10 (unit not given; K+/Cl–).

With “Calmodulin (apo) (Homo sapiens (as modelled in the article; source species of the measured sample not stated))”, the pKa in the series with Lys30 was 10.55 ± 0.10; with Lys77 it was 10.55 ± 0.10; with Lys21 it was 10.55 ± 0.10; with Lys13 [1], 10.23 ± 0.10; in the series with Lys94, 10.55 ± 0.10; with Lys75, 9.87 ± 0.10.

With “DNA polymerase lambda, lyase (8 kDa) domain (Homo sapiens)”, the pKa with Lys8 is on record as 10.27 ± 0.14; with Lys72, 9.58 ± 0.14; with Lys33 [2] it was 10.07 ± 0.14; with Lys67, 10.16 ± 0.14; with Lys51, 10.26 ± 0.14; with Lys84 it was 10.27 ± 0.14. Further, the pKa is 10.23 ± 0.14 with Lys25, 10.01 ± 0.14 with Lys41, 10.07 ± 0.14 in the series with Lys19 and 10.65 ± 0.14 in the series with Lys47.

With “Hen egg-white lysozyme (HEWL) (Gallus gallus)”, the pKa in the series with Asp52 was 3.68 ± 0.08; with Asp48 it was 1.60 ± 0.4; in the series with Asp87, 2.07 ± 0.15; with Asp66 it was 0.90 ± 0.5; with Asp18 it was 2.66 ± 0.08; with Lys97, 10.30 ± 0.10. The pKa in the series with Glu7 is recorded as 2.85 ± 0.25; in the series with Lys96, 10.80 ± 0.10; with Lys116 it was 10.40 ± 0.10; with Lys13 [3], 10.50 ± 0.10; with Asp119, 3.2 ± 0.09; in the series with Glu35 it was 6.20 ± 0.10. The pKa with Asp101 is 4.09 ± 0.07; with Lys33 [4], 10.60 ± 0.10.

Turning to “Highly charge-depleted protein (PDB 6QFS), S61D variant (Cellulomonas fimi (parent domain; not stated in the article); S61D (on the 6QFS charge-depleted background; background substitutions not stated))”, in the series with Asp61, the pKa is on record as 4.15 ± 0.01.
